Laboratory results reported in paper PMC9166773, “Latrophilin-2 is a novel receptor of LRG1 that rescues vascular and neurological abnormalities and restores diabetic erectile function” (Experimental & Molecular Medicine, 2022).

T1: LPHN2 Lec-Olf domains (F26-P394) (UniProt O95490 26-394)
T1 construct: LPHN2 (ADGRL2) lectin and olfactomedin-like domains, residues F26-P394; Both Fc-tagged and tag-free forms were made; source: Expi293F, purified (protein A resin; tag-free form by on-resin thrombin digestion; Superdex 200)
T1 sequence (looked up): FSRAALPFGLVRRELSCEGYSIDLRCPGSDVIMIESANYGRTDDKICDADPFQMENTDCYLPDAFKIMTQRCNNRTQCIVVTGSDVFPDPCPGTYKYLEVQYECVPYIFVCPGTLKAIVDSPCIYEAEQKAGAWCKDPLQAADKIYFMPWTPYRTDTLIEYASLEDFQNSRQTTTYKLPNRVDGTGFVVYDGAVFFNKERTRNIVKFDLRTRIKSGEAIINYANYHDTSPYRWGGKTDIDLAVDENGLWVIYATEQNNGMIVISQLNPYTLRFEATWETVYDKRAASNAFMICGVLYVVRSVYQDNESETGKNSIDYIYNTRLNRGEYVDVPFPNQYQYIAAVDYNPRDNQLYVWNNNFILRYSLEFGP

B1: LPHN2 Olf domain (V135-P394) (domain or fragment, UniProt O95490 135-394, looked up)
chain: VCPGTLKAIVDSPCIYEAEQKAGAWCKDPLQAADKIYFMPWTPYRTDTLIEYASLEDFQNSRQTTTYKLPNRVDGTGFVVYDGAVFFNKERTRNIVKFDLRTRIKSGEAIINYANYHDTSPYRWGGKTDIDLAVDENGLWVIYATEQNNGMIVISQLNPYTLRFEATWETVYDKRAASNAFMICGVLYVVRSVYQDNESETGKNSIDYIYNTRLNRGEYVDVPFPNQYQYIAAVDYNPRDNQLYVWNNNFILRYSLEFGP
notes: LPHN2 (ADGRL2) olfactomedin-like domain, residues V135-P394; Both Fc-tagged and tag-free forms were made; also called olfactomedin-like domain; source: Expi293F, purified (protein A resin; tag-free form by on-resin thrombin digestion; Superdex 200)
B2: Leucine-rich alpha-2-glycoprotein 1 (LRG1), recombinant tag-free human LRG1 (ligand, UniProt P02750 36-347, looked up)
chain: VTLSPKDCQVFRSDHGSSISCQPPAEIPGYLPADTVHLAVEFFNLTHLPANLLQGASKLQELHLSSNGLESLSPEFLRPVPQLRVLDLTRNALTGLPPGLFQASATLDTLVLKENQLEVLEVSWLHGLKALGHLDLSGNRLRKLPPGLLANFTLLRTLDLGENQLETLPPDLLRGPLQLERLHLEGNKLQVLGKDLLLPQPDLRYLFLNGNKLARVAAGAFQGLRQLDMLDLSNNSLASVPEGLWASLGQPNWDMRDGFDISGNPWICDQNLSDLYRWLQAQKDKMFSQNDTRCAGPEAVKGQTLLAVAKSQ
notes: human LRG1, residues V36-Q347; In the TriCEPS capture LRG1 was coupled to the TriCEPS reagent; Residues of the thrombin site may remain after cleavage; also called recombinant LRG1; soluble LRG1; not shown: Fc (human IgG), C-terminal, cleaved

Tests used:
[1] = target: B2; assay: solid-phase binding assay; LRG1 and recombinant extracellular domains of LPHN2 (and Lec/Olf of LPHN1, LPHN3); who was immobilised and conditions not told in the text shown; conditions: both partners purified
[2] = target: T1, LPHN2 Lec-Olf domains (F26-P394); assay: as above; conditions: both partners purified

Kd [1] [nM] | Kd [2] [nM] | Binder
920 | – | B1
– | 890 | B2
